Experimental data: patent publication US8034579B2, “Proteins with enhanced functionality and methods of making novel proteins using circular permutation” (Emory University, priority 2005, dated 2011)

Tests used:
[1] = substrate: CCCC(=O)Oc1ccc([N+](=O)[O-])cc1; assay: Initial rate of hydrolysis of p-nitrophenol butyrate (pNB), wild type; type: biochemical, Candida antarctica; conditions: other: wild type, 50 mM K-phosphate pH 7.5, room temperature
Excerpt: (§1) Kinetic analysis of protein variants: To examine the impact of circular permutation on catalysis eleven functional CALB variants with termini in or near the active site were selected for detailed kinetic characterization. The locations of the termini in these variants are shown on the structure of CALB in FIG. 6; the numbers correspond to the amino acid residue of the new terminus. Following overexpression in P. pastoris, the selected circularly permuted proteins were purified to homogeneity. The catalytic performance of these variants was determined in activity assays with two standard lipase substrates, measuring the initial rates of hydrolysis of the chromogenic substrate p-nitrophenol butyrate (pNB) and the fluorogenic substrate 6,8-difluoro-4-methylumbelliferyl (DiFMU) octanoate.
(§2) The overexpression and purification of wild type CALB was performed as described in Rotticci-Mulder, J. C. et al., Protein Expr Purif 2001, 21, (3), 386-92, which is hereby incorporated by reference. The same protocol was adopted for the isolation of circular permutation variants of CALB. Briefly, pPIC9-ca/B was linearized by SacI digestion and electroporated into P. pastoris cells (GS115). […]
(§3) Lipase activity was determined by measuring the initial hydrolysis rate of p-NB and DiFMU octanoate at room temperature on a Synergy-HT microtiterplate reader (Bio-Tek Instruments, Winooski, Vt.). Stock solutions of p-NB (200 mM) and DiFMU octanoate (3 mM) were prepared in DMSO. p-NB hydrolysis over a substrate range of 0-1.6 mM was measured in 50 mM K-phosphate buffer (pH 7.5) at 400 nm ( ? for p-NB=13260 M^1 cm^−1) as described in Bender, M. L. et al., J Am Chem Soc 1968, 90, (1), 201-7, which is hereby incorporated by reference. The rate of DiFMU octanoate hydrolysis was determined by measuring the DiFMU formation over a substrate range of 0-12 μM in 50 mM K-phosphate buffer (pH 7.0) at an excitation/emission wavelength 360/460 nm. Kinetic constants were calculated by fitting the initial rates to the Michaelis-Menten equation using the Origin® software (version 7; OriginLab Corporation).

[2] = substrate: CCCCCCCC(=O)Oc1c(F)cc2c(C)cc(=O)oc2c1F; assay: Initial rate of hydrolysis of DiFMU octanoate, wild type; type: biochemical, Candida antarctica; conditions: other: wild type, 50 mM K-phosphate pH 7.0, room temperature
Excerpt: as §1, §2, §3

B1: Candida antarctica lipase B (CALB), wild type, SEQ ID NO: 2, L1/P317 (Moesziomyces antarcticus) (protein)
chain: LPSGSDPAFSQPKSVLDAGLTCQGASPSSVSKPILLVPGTGTTGPQSFDSNWIPLSAQLGYTPCWISPPPFMLNDTQVNTEYMVNAITTLYAGSGNNKLPVLTWSQGGLVAQWGLTFFPSIRSKVDRLMAFAPDYKGTVLAGPLDALAVSAPSVWQQTTGSALTTALRNAGGLTQIVPTTNLYSATDEIVQPQVSNSPLDSSYLFNGKNVQAQAVCGPLFVIDHAGSLTSQFSYVVGRSALRSTTGQARSADYGITDCNPLPANDLTPEQKVAAAALLAPAAAAIVAGPKQNCEPDLMPYARPFAVGKRTCSGIVTP
Km [1]: 410 ± 40 µM | kcat [1]: 5.08 ± 0.167 s⁻¹ | kcat/Km [1]: 12300 M⁻¹ s⁻¹ | Km [2]: 2.6 ± 0.3 µM | kcat [2]: 0.033 ± 0.0017 s⁻¹ | kcat/Km [2]: 13000 M⁻¹ s⁻¹
